Test results reported in patent publication US4493829A, “Bio-available succinylated protein-iron derivatives which do not cause gastric lesions, method of preparation and related pharmaceutical compounds” (Italfarmaco S.p.A., priority 1982, dated 1985).

Assays:
[1] = Haematic levels after oral administration: Ferrolat-ferrous sulphate comparison; design: species or system male Wistar rats; conditions: rat, in vivo, 1 mg/kg
Protocol: Male Wistar rats, weighing approximately 200 grammes and starved for 18 hours were taken, randomized and separated into groups of 5; each group had been sacrificed at the determined hour and blood was taken from each animal by resecting the carotid; the amount of iron in the blood of each animal of the group was determined spectrophotometrically by means of bathophenanthrolinsulphonic acid (Fe-test, Wako). The administration was carried out by a probe in an acqueous solution (5 ml/kg).
The succinyl ferroprotein derivative which was used was prepared as in example 1 (Ferrolat). It can be seen that the quantity of iron/kg. was the same for both the derivatives (Fe: 1 mg/kg).

[2] = Haematic levels after oral administration: Ferrolat-ferritin comparison; type: in vivo, male Wistar rats; conditions: 1 mg/kg Fe oral
Protocol: Male Wistar rats, weighing approximately 200 grams and starved for 18 hours, were taken, randomized and separated into groups of 9; each group was sacrificed at the determined hour and blood was taken from each animal by resecting the carotid. The amount of iron in the blood of each animal of the group was determined spectrophotometrically by means of the Iron Colorimetric Method (Boehringer-Mannheim). The administration was carried out by a probe in an acqueous solution (5 ml/kg). Dosages and results are shown in table X. It can be seen that the quantity of iron/kg for the succinyl ferroprotein derivative indicated as Ferrolat was that of ferritin (Sigma, St. Louis, Mo.) and equal to 1 mg/kg.

[3] = cited from earlier work
[4] = ferritin based treatment; cited from earlier work
[5] = Haematic levels: comparison between succinyl ferroprotein derivatives from different types of proteins; type: in vivo, male Wistar rats; conditions: two hours after administration, 1 mg/kg Fe oral
Protocol: Male Wistar rats, weighing approximately 200 grams and starved for 18 hours, were taken, randomized and separated into groups of 5 (one per dose of derivative and a control group). Each group was sacrificed two hours after administration and, by resecting the carotid, blood was taken from each animal and the iron content in the blood was determined by means of bathophenanthrolinsulphonic acid Fe-test, Wako). The oral administration was carried out by a probe in an aqueous solution (5 ml/kg). The doses of individual derivatives which were used were selected so that 1 mg/kg of Fe was always administered.

**Q.** For `O=S(=O)([O-])[O-].[Fe+2]` [FeSO4 7H2 O, ferrous sulphate], which Serum iron ([1]; 0.5 h) is on record?
**A.** 336.27 μg %

**Q.** What about the Serum iron ([1]; 1 h) of the same molecule?
**A.** 272.14 μg %

**Q.** And the Serum iron ([1]; 2 h)?
**A.** 273.56 μg %

**Q.** And the Serum iron ([1]; 4 h)?
**A.** 129.50 μg %

**Q.** And the Serum iron ([1]; 6 h)?
**A.** 80.52 μg %

**Q.** Which Serum iron ([2]; 1 hour after treatment) does the source give for Ferritin here?
**A.** 168.79 μg/100 ml

**Q.** And the Serum iron ([2]; 2 hours after treatment)?
**A.** 170.66 μg/100 ml

**Q.** What about the Serum iron ([2]; 4 hours after treatment) of the same molecule?
**A.** 148.08 μg/100 ml

**Q.** What about the Serum iron ([2]; 6 hours after treatment) of the same molecule?
**A.** 89.22 μg/100 ml

**Q.** What about the solubility in water [3] of the same molecule?
**A.** soluble in water

**Q.** And the gastrointestinal side effects [4]?
**A.** does not result in the gastrointestinal side effects

B1: Succ. ovalbumin: iron derivatives from succinylated egg proteins (ovalbumin) (protein, UniProt P01012 2-386, looked up)
Ovalbumin: GSIGAASMEFCFDVFKELKVHHANENIFYCPIAIMSALAMVYLGAKDSTRTQINKVVRFDKLPGFGDSIEAQCGTSVNVHSSLRDILNQITKPNDVYSFSLASRLYAEERYPILPEYLQCVKELYRGGLEPINFQTAADQARELINSWVESQTNGIIRNVLQPSSVDSQTAMVLVNAIVFKGLWEKAFKDEDTQAMPFRVTEQESKPVQMMYQIGLFRVASMASEKMKILELPFASGTMSMLVLLPDEVSGLEQLESIINFEKLTEWTSSNVMEERKIKVYLPRMKMEEKYNLTSVLMAMGITDVFSSSANLSGISSAESLKISQAVHAAHAEINEAGREVVGSAEAGVDAASVSEEFRADHPFLFCIKHIATNAVLFFGRCVSP
modifications: 95% succinylated, iron derivative 3.6% Fe
**Q.** Which “serum iron average values ± SE” value [5] does the source give for B1 here?
**A.** 235.82 ± 46.06 μg/100 ml
